Reference: patent publication US20170226208A1 (SUPPREMOL, published 2017)
One block for each binder: values may come before it.

Key:
[1] = target: T1, native FcγRIIB expressed on cells (Raji, Daudi, PBMC B cells) (human, UniProt P31994 43-310); experiment: cell-based or functional assay
T1 sequence (looked up): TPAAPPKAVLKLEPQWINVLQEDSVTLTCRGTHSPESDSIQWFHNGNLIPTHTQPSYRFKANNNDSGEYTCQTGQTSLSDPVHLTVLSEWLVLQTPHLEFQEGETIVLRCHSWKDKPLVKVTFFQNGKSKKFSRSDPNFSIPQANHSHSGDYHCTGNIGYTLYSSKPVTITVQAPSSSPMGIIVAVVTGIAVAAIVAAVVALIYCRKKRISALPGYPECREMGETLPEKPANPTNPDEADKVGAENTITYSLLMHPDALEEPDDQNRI

[2] = target: T2, recombinant soluble human FcγRIIB (UniProt P31994 43-217); experiment: SPR; N297A format
T2 chain: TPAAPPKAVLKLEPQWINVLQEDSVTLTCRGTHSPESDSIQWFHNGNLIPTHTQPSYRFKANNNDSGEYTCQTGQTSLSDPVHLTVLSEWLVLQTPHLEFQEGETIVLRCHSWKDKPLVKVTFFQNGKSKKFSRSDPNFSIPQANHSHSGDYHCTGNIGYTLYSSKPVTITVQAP

[3] = target: FcεRI at the surface of basophils (human) (UniProt P12319); experiment: cell-based or functional assay
Sequence of FcεRI at the surface of basophils (human) (P12319 26-257): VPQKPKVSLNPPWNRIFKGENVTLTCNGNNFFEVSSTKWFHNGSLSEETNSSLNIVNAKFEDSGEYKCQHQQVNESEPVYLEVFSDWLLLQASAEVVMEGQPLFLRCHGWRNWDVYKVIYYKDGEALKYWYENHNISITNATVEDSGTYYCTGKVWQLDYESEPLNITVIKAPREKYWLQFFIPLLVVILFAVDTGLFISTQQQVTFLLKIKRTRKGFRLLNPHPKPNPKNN

[4] = target: T2, recombinant soluble human FcγRIIB; experiment: SPR; wildtype Fc format
[5] = target: T3, recombinant soluble human FcγRIIB (human, UniProt P31994 43-217); experiment: antigen-specific ELISA, sFcγRIIB coated, hybridoma supernatant
T3 construct: also called sFcγRIIB; SM101
T3 sequence: T2 chain
Experimental: Fusion of the myeloma cell line with the rat immune spleen cells was performed according to standard procedures. […] MAbs from tissue culture supernatant bound to the proteins were detected with HRP conjugated mAbs against the rat IgG isotypes (TIB173 anti-IgG2a, TIB174 anti-IgG2b, TIB170 anti-IgG1 all from ATCC, R-2c anti-IgG2c homemade), thus avoiding mAbs of IgM class. […] A FACS based assay was used to screen the antibodies for specific binding of the native antigen). Additionally the antibodies were screened for non-blocking characteristics, i.e. these antibodies still allow binding of IgG or immune complexes to membrane-bound FcγRIIB.

FcγRIIB-ITIM phosphorylation, densitometry of Western blot, Daudi cells, against untreated cells [1]: 2.8 fold
koff [2]: 0.01 s⁻¹
B1: chGB3_N297A (antibody, V domains shown)
VH: VQLQQSGPELVKPGASVKISCKASGYTFTDYYIYWVKQWPGQGLEWIGWIFPGTGNTYYNENFKDKATLTIDRSSSTAYMLLGSLTSEDSAVYFCYGPFAYWGQ
VL: RIQLTQSPSSLSASLGERVSLTCRASQEISGYLSWLQQKPDGTIKRLIYATSALDSGVPKRFSGSGSGSNYSLTISSLESEDFADYYCLQYANYPYTFGGGTKL

basophil activation by pollen, CD63-positive basophils, after 2 h incubation with antibody (% positive cells) [3]: 84.4 to 88
basophil activation by pollen, CD63-positive basophils, after 6 h incubation with 0.5 µg/ml antibody [3]: 76.6%
basophil activation by pollen, CD63-positive basophils, after 6 h incubation with antibody [3]: 76 to 84%
B2: ch8A6_cε2-4-degly (bispecific antibody, part only; not given: CH1, CL and IgE Fc domains, not shown: a dimerising Fc or GST)
heavy, part: EVQLVESGGDLVQPGRSLRLSCAASGFTFSDYYMAWVRQAPKKGLEWVASISSDGSNTYYGDSVKGRFTISRDNTRSNLYLQMNSLRSEDTATYYCARPGDYWGQGVMVTVSS
light, part: NIVMTQSPTSMFISVGDRVTMNCKASQNVGTYVDWFQQKTGQSPTLLIFGASNRYTGVPDRFTGSGSGTDFTLSISNMQAEDLAVYYCLQYNYHPYTFGPGTTLELKR

koff [4]: 0.00049 s⁻¹
B3: ch8A6_wt (antibody)
chain 1: B2 heavy, part
chain 2: B2 light, part

binding result [5]: binds
B4: monoclonal antibody 8A6 (rat IgG2a) (antibody, V domains shown)
VH: B2 heavy, part
VL: B2 light, part
notes: Rat IgG2a from hybridoma supernatant; also called mAb 8A6; rat antibody 8A6
